T1: recombinant human Trop-2-his protein (ACCESSION NO.: NP_002344.2, AA 1-274) (human, UniProt P09758 27-274)
T1 construct: range 27-274; also called recombinant human Trop-2 protein; recombinant human Trop-2 extracellular domain; not shown: his tag
T1 sequence (looked up): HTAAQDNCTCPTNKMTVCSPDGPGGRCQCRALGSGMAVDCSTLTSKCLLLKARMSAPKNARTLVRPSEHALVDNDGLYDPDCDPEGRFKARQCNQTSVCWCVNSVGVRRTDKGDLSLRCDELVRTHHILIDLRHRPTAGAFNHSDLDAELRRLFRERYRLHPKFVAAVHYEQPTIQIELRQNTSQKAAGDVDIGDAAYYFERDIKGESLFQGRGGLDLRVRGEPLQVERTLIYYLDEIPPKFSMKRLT


Target: T1, recombinant human Trop-2-his protein …
Assay: BLI, antibody on AHC sensor, Trop-2-his 60 nM
Method: (§1) 5-6 days after cell transfection, culture supernatants were purified through ProA affinity chromatography column to obtain different humanized antibodies. Affinities of the obtained antibodies were determined by an assay including capturing Fc fragments of the antibodies with anti-human IgG Fc capture (AHC) biosensors using Octet QKe system instrument from Fortebio. For the assay, each of the humanized antibodies and control antibody Sacituzumab was diluted to 4 μg/ml in PBS, and was allowed to flow through the surface of an AHC biosensor (Cat.: 18-0015, PALL) for 120 s. Recombinant human Trop-2-his protein (ACCESSION NO.: NP_002344.2, AA 1-274) was used as a mobile phase, and its concentration was 60 nM. The binding time was 100 s and the dissociation time was 300 s. When the assay was finished, data from which the response values of blank control had been deducted were fitted to a 1:1 Langmuir binding model using software, and then kinetic constants for antigen-antibody binding were calculated.
Affinities of the antibodies obtained from the combinations of mutants of murine antibody 11-4, chimeric antibody ch11-4 and control antibody Sacituzumab to recombinant human Trop-2-his protein were determined by ForteBio (Table 11).

Kd [nM] | Binder
2.16 | h11-4-1 (antibody, human IgG1, kappa, V domains shown, also called CDR grafted antibody 11-4) VH: QVQLVQSGAEVKKPGASVKVSCKASGYTFTSYWINWVRQAPGQGLEWMGNIYPSNSYTNYNQKFKDRVTMTRDTSTSTVYMELSSLRSEDTAVYYCARYRSDGFAYWGQGTLVTVSS VL: EIVLTQSPATLSLSPGERATLSCRASQNIGTSIHWYQQKPGQAPRLLIYFASESISGIPARFSGSGSGTDFTLTISSLEPEDFAVYYCQQSNSWPFTFGGGTKVEIKR
0.803 | h11-4-7 (antibody, human IgG1, kappa, name in Kabat numbering, V domains shown) VH: QVQLVQSGAEVKKPGASVKVSCKASGYTFTSYWINWVRQAPGQGLEWMGNIYPSNSYTNYNQKFKDRVTMTRDTSTSTVYMELSSLRSEDTAVYYCASYRSDGFAYWGQGTLVTVSS VL: EIVLTQSPATLSLSPGERATLSCRASQNIGTSIHWYQQKPGQAPRLLIEFASESISGIPARFSGSGSGTDFTLTISSLEPEDFAVYYCQQSNSWPFTFGGGTKVEIKR
0.991 | h11-4-2 (antibody, human IgG1, kappa, V domains shown) VH: QVQLVQSGAEVKKPGASVKVSCKASGYTFTSYWINWVRQAPGQGLEWMGNIYPSNSYTNYNQKFKDRVTMTRDTSTSTVYMELSSLRSEDTAVYYCSRYRSDGFAYWGQGTLVTVSS VL: EIVLTQSPATLSLSPGERATLSCRASQNIGTSIHWYQQKPGQAPRLLIYFASESISGIPARFSGSGSGTDFTLTISSLEPEDFAVYYCQQSNSWPFTFGGGTKVEIKR
0.952 | h11-4-6 (antibody, human IgG1, kappa, name in Kabat numbering, V domains shown) VH: QVQLVQSGAEVKKPGASVKVSCKASGYTFTSYWINWVRQAPGQGLEWMGNIYPSNSYTNYNQKFKDRVTMTRDTSTSTVYMELSSLRSEDTAVYYCSRYRSDGFAYWGQGTLVTVSS VL: EIVLTQSPATLSLSPGERATLSCRASQNIGTSIHWYQQKPGQAPRLLIEFASESISGIPARFSGSGSGTDFTLTISSLEPEDFAVYYCQQSNSWPFTFGGGTKVEIKR
1.08 | h11-4-5 (antibody, human IgG1, kappa, name in Kabat numbering, V domains shown) VH: QVQLVQSGAEVKKPGASVKVSCKASGYTFTSYWINWVRQAPGQGLEWMGNIYPSNSYTNYNQKFKDRVTMTRDTSTSTVYMELSSLRSEDTAVYYCARYRSDGFAYWGQGTLVTVSS VL: EIVLTQSPATLSLSPGERATLSCRASQNIGTSIHWYQQKPGQAPRLLIEFASESISGIPARFSGSGSGTDFTLTISSLEPEDFAVYYCQQSNSWPFTFGGGTKVEIKR
0.222 | h11-4-8 (antibody, human IgG1, kappa, name in Kabat numbering, V domains shown) VH: EVQLVQSGAEVKKPGASVKVSCKASGYTFTSYWINWVRQAPGQGLEWMGNIYPSNSYTNYNQKFKDRVTMTRDTSTSTVYMELSSLRSEDTAVYYCSSYRSDGFAYWGQGTLVTVSS VL: EIVLTQSPATLSLSPGERATLSCRASQNIGTSIHWYQQKPGQAPRLLIEFASESISGIPARFSGSGSGTDFTLTISSLEPEDFAVYYCQQSNSWPFTFGGGTKVEIKR
0.868 | h11-4-3 (antibody, human IgG1, kappa, V domains shown) VH: QVQLVQSGAEVKKPGASVKVSCKASGYTFTSYWINWVRQAPGQGLEWMGNIYPSNSYTNYNQKFKDRVTMTRDTSTSTVYMELSSLRSEDTAVYYCASYRSDGFAYWGQGTLVTVSS VL: EIVLTQSPATLSLSPGERATLSCRASQNIGTSIHWYQQKPGQAPRLLIYFASESISGIPARFSGSGSGTDFTLTISSLEPEDFAVYYCQQSNSWPFTFGGGTKVEIKR
0.301 | h11-4-9 (antibody, human IgG1, kappa, name in Kabat numbering, V domains shown) VH: EVQLVQSGAEVKKPGASVKVSCKASGYTFTSYWINWVRQAPGQGLEWMGNIYPSNSYTNYNQKFKDRVTMTRDTSTSTVYMELSSLRSEDTAVYYCSSYRSDGFAYWGQGTLVTVSS VL: EIVLTQSPATLSLSPGERATLSCRASQNIGTSIEWYQQKPGQAPRLLIEFASESISGIPARFSGSGSGTDFTLTISSLEPEDFAVYYCQQSNSWPFTFGGGTKVEIKR
0.811 | h11-4-4 (antibody, human IgG1, kappa, V domains shown) VH: EVQLVQSGAEVKKPGASVKVSCKASGYTFTSYWINWVRQAPGQGLEWMGNIYPSNSYTNYNQKFKDRVTMTRDTSTSTVYMELSSLRSEDTAVYYCSSYRSDGFAYWGQGTLVTVSS VL: EIVLTQSPATLSLSPGERATLSCRASQNIGTSIHWYQQKPGQAPRLLIYFASESISGIPARFSGSGSGTDFTLTISSLEPEDFAVYYCQQSNSWPFTFGGGTKVEIKR
0.282 | h11-4-12 (antibody, human IgG1, kappa, name in Kabat numbering, V domains shown) VH: EVQLVQSGAEVKKPGASVKVSCKASGYTFTSYWINWVRQAPGQGLEWMGNIYPSNSYTNYNQKFKDRVTMTRDTSTSTVYMELSSLRSEDTAVYYCSSYRSDAFAYWGQGTLVTVSS VL: EIVLTQSPATLSLSPGERATLSCRASQNIGTSIEWYQQKPGQAPRLLIEFASESISGIPARFSGSGSGTDFTLTISSLEPEDFAVYYCQQSNSWPFTFGGGTKVEIKR
0.211 | h11-4-13 (antibody, human IgG1, kappa, name in Kabat numbering, V domains shown) VH: EVQLVQSGAEVKKPGASVKVSCKASGYTFTSYWINWVRQAPGQGLEWMGNIYPSNSYTNYNQKFKDRVTMTRDTSTSTVYMELSSLRSEDTAVYYCSSYRSDGFAYWGQGTLVTVSS VL: EIVLTQSPATLSLSPGERATLSCRASQNIGTSISWYQQKPGQAPRLLIEFASESISGIPARFSGSGSGTDFTLTISSLEPEDFAVYYCQQSNSWPFTFGGGTKVEIKR
0.352 | h11-4-14 (antibody, human IgG1, kappa, name in Kabat numbering, V domains shown) VH: EVQLVQSGAEVKKPGASVKVSCKASGYTFTSYWINWVRQAPGQGLEWMGNIYPSNSYTNYNQKFKDRVTMTRDTSTSTVYMELSSLRSEDTAVYYCSSYRSEGFAYWGQGTLVTVSS VL: EIVLTQSPATLSLSPGERATLSCRASQNIGTSISWYQQKPGQAPRLLIEFASESISGIPARFSGSGSGTDFTLTISSLEPEDFAVYYCQQSNSWPFTFGGGTKVEIKR
0.351 | h11-4-10 (antibody, human IgG1, kappa, name in Kabat numbering, V domains shown) VH: EVQLVQSGAEVKKPGASVKVSCKASGYTFTSYWINWVRQAPGQGLEWMGNIYPSNSYTNYNQKFKDRVTMTRDTSTSTVYMELSSLRSEDTAVYYCSSYRSEGFAYWGQGTLVTVSS VL: EIVLTQSPATLSLSPGERATLSCRASQNIGTSIEWYQQKPGQAPRLLIEFASESISGIPARFSGSGSGTDFTLTISSLEPEDFAVYYCQQSNSWPFTFGGGTKVEIKR
0.375 | h11-4-11 (antibody, human IgG1, kappa, name in Kabat numbering, V domains shown) VH: EVQLVQSGAEVKKPGASVKVSCKASGYTFTSYWINWVRQAPGQGLEWMGNIYPSNSYTNYNQKFKDRVTMTRDTSTSTVYMELSSLRSEDTAVYYCSSYRSGGFAYWGQGTLVTVSS VL: EIVLTQSPATLSLSPGERATLSCRASQNIGTSIEWYQQKPGQAPRLLIEFASESISGIPARFSGSGSGTDFTLTISSLEPEDFAVYYCQQSNSWPFTFGGGTKVEIKR

Target: T1, recombinant human Trop-2-his protein …
Assay: BLI, antibody on AHC sensor, Trop-2-his 60 nM
Remark: another data set of the same source
Method: as §1
Affinities of the antibodies obtained from the combinations of mutants of murine antibody 23-12, chimeric antibody ch4-3 and control antibody Sacituzumab to recombinant human Trop-2-his protein were determined by ForteBio (Table 8).

Kd [nM] | Binder
1.53 | h4-3-16 (antibody, human IgG1, kappa, V domains shown) VH: EVQLVQSGPEVKKPGASVKVSCKASGFTFTDYVIGWVRQAPGQGLEWIGEIYLGSGTIYYTEKFKGRVTMTADTSTSTAYMELSSLRSEDTAVYYCARGSIFYFDYWGQGTLVTVSS VL: DIQLTQSPSSLSASVGDRVTITCSASSSVSYMYWYQQKPGKAPKLLIYDTSTLQSGVPSRFSGSGSGTDFTLTISSLQPEDFATYYCQQWSSYPYTFGQGTKLEIKR
0.542 | h4-3-17 (antibody, human IgG1, kappa, V domains shown) VH: EVQLVQSGPEVKKPGASVKVSCKASGFTFTDYVIGWVRQAPGQGLEWIGEIYLGSGTIYYTEKFKGRVTMTADTSTSTAYMELSSLRSEDTAVYYCARGSIFPFDYWGQGTLVTVSS VL: DIQLTQSPSSLSASVGDRVTITCSASSSVSYMYWYQQKPGKAPKLLIYDTSTLASGVPSRFSGSGSGTDFTLTISSLQPEDFATYYCQQWNSYPYTFGQGTKLEIKR
0.671 | h4-3-18 (antibody, human IgG1, kappa, V domains shown) VH: EVQLVQSGPEVKKPGASVKVSCKASGFTFTDYVIGWVRQAPGQGLEWIGEIYLGSGTIYYAEKFKGRVTMTADTSTSTAYMELSSLRSEDTAVYYCARGSIFPFDYWGQGTLVTVSS VL: DIQLTQSPSSLSASVGDRVTITCSASSSVSYMYWYQQKPGKAPKLLIYDTSTLASGVPSRFSGSGSGTDFTLTISSLQPEDFATYYCQQWNSYPYTFGQGTKLEIKR
0.599 | h4-3-19 (antibody, human IgG1, kappa, V domains shown) VH: EVQLVQSGPEVKKPGASVKVSCKASGFTFTDYVIGWVRQAPGQGLEWIGEIYLGSGTIYYTQKFKGRVTMTADTSTSTAYMELSSLRSEDTAVYYCARGSIFPFDYWGQGTLVTVSS VL: DIQLTQSPSSLSASVGDRVTITCSASSSVSYMYWYQQKPGKAPKLLIYDTSTLASGVPSRFSGSGSGTDFTLTISSLQPEDFATYYCQQWNSYPYTFGQGTKLEIKR
0.892 | h4-3-20 (antibody, human IgG1, kappa, V domains shown) VH: EVQLVQSGPEVKKPGASVKVSCKASGFTFTDYVIGWVRQAPGQGLEWIGEIYLGSGTIYYTEKFKGRVTMTADTSTSTAYMELSSLRSEDTAVYYCARGSIFYFDYWGQGTLVTVSS VL: DIQLTQSPSSLSASVGDRVTITCSASSSVSYMYWYQQKPGKAPKLLIYDTSTLASGVPSRFSGSGSGTDFTLTISSLQPEDFATYYCQQWNSYPYTFGQGTKLEIKR
